According to the nanobody polyreactivity screen of Harvey et al. (2022):

Assay: yeast display, Sf9 membrane polyspecificity reagent, FACS + sequencing; frameworks hold sequencing errors
Outline: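 Nanobodies from a synthetic yeast display library (Saccharomyces cerevisiae BJ5465), induced 36–48 hours with galactose, were stained 1 hour at 4 °C with 10% biotinylated, detergent-solubilized Sf9 membrane reagent, enriched on streptavidin microbeads, then FACS-sorted. Anti-HA (expression) and streptavidin (reagent binding) fluorescence set low and high (top ~1%) gates. Polyreactivity labels come from the gate of origin. Genes were colony-PCR amplified, MiSeq 2 × 250 sequenced and filtered by CDR length.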

Sequence	polyreactivity (PSR sort gate)
QVQLVESGGGLVQAGGSLRLSCAASGFTFDKYAMGWYRQAPGKERELVAAISGSGGTTYYADSVKGRFTISRDNAKNTVYLQMNSLKPEDTAVYYCATRLYSIYSYGYWGQGTQVTVSS	high polyreactivity
QVQLVESGGGLVQAGGSLRLSCAASGYTFYANAMGWYRQATGKEREFVASITWSGGSTYYADSVKGRFTISRDNAKNTVYLQMNSLKPEDTAVYYCAAESWFKYDYWGQGTQVTVSS	low polyreactivity
QFQLVESGGGLVQAGGSLRLSCAASGSTFGVYAMGWYRQAPGKERELVATINSGGSTNYADSVKGRFTISRDNAKNTVYLQMNSLKPEDTAVYYCAAGPFWQDFYVYEYDYWGQGTQVTVSS	low polyreactivity
QVQLVESGGGLVQAGGSLRLSCAASGRTFTVYAMGWYRQAPGKEREFVAAITERGGSTYYADSVKGRFTISRDNAKNTVYLQMNSLKPEDTAVYYCAAVYYWRPGWYVRFDYWGHGTQVTVSS	low polyreactivity
QVQLQESGGGLVQAGGSLRLSCAASGSISHYIFMGWYRQAPGKEREFVAGIGYGGTTNYADSVKGRFTISRDNAKNTVYLQMNSLKPEDTAMYYCAAREATEFYLYYWGQGTQVTVRS	low polyreactivity
QVQLVESGGGLVQAGGSLRLSCAASGRIIGHNAMGWYRQAPGKERELVAAISSRGGSTFYADSVKGRFTISRDNAKNTVYLQKNSLKPEDTAVYYCNALGVGHSGFTKFSRYYYWGQGTQVTVSS	high polyreactivity
QVQLVESGGGLVQAGGSLRLSCAASGRIFRRYAMGWYRQAPGKERELVAVISRGGSTHYADSVKGRFTISRDNAKNTVYLQMNSLKPEDTAVYYCNAVVSVYTKDLDYWGQGTQVTVSS	high polyreactivity
QVQLVESGGGLVQAGGSLRLSCAASGRTFDLYAMGWYRQAPGKERELVATISRTGSTNYADSVKGRFTISRDNAKNTVYLQMNSLKPEDTAVYYCNADVPVSRWLRHGYYTVGYDYWGQGTQVTVSS	low polyreactivity
QVQLVESGGGLVQAGGSLRLSCAASGNTFADYAMGWYSQAPGKERELVADLTFSGGGTYYADSVKGRFTISRDNAKNTVYLQMNSLKPEDTPVYDCNADLDSYVGDEYDHWGQGTQVTVSS	low polyreactivity
QVQLVESGGGLVQAGGSLRLSCAASGRTFYSNAMGWYRQAPGKERELVATITRRGGSTYYADSVKGRFTISRDNAKNTVYLQMNSLKPEDTAVYYCNAVSSKGNPYYYWGQGTQVTVSS	high polyreactivity
QVQLVESGGGLVQAGGSLRLSCAASGSTFVLNAMGWYRQSPGKERQLVAGISYGTGSTYYADSVKGRITISRDNAKNTVYLQMNSLKPEDTAVYFCAADNWAVNAYYWYIYDYWGQGTQVTVSS	low polyreactivity
QVQLVESGGGVVQAGGSLRLSCAASGITFSYYTMGWSRQAPGKERELVAAINWTGGDTYYADSVKGRFTISRDNAKNTVYLQMNSLNPEDTAVYYCNADYPYFYRFTAEYDYWGQGPQVTVSS	low polyreactivity
QVQLQESRGGLVQAGGSLRLICAASGSISCPHVMGWYRQAPGKEREFVAAINVGANTYYADNVKGRFTISRDNAKNTVYLQKNSLKPEATAVYYCAAVYYGDIGHEYWGQGTQVTVSC	low polyreactivity
QVQLVESGGGLVQAGGSLRLSCAASGFTFYSYDMGWYRQAPGKERELVAVITERGSSTYYADSVKGRFTISRDNAKNTVYLQMNSLKPEDTAVYYCAAYSEYYGVYYWGQGTQVTVSS	low polyreactivity
QVQLVESGGGLVQAGGSLRLSCAASGIIFGYYAMGGYRQAPGKERELVAAISSRGSRTYYADSVKGRFTISRDNAKNTVYLQMNSLKPEDTAVYYCAARHFARMGYWGQGTQVTVSS	high polyreactivity
QVQLVESGGGLVHAGGSLRLSCAASGSTFTPNAMGWYRQAPRKERDLVAAIRGLNGRTYYADSVKGRITISRDNAKNTVYLQMNSLKPEDTAVYYCAAGGYSNYFAWHDYWGQCTQVTVSS	low polyreactivity
QVQLVESGAGLVQAGGSLRLSCAASGRIFYWYAMGWYRQAPGKERELVAAIRRRVGSTYYADSVKGRFTISRDNAKNTVYLQMNSLKPEDTAVYYCAAVITSDGARYDYWGQGTQVTVSS	high polyreactivity
QVQLVESGGGLVQAGGSLRLSCAASGRIFFPNPMGWYRQAPGKDREFVAGITVSGGSTYYADSVKGRFTISRDNAKNTVYFQMNSLKPEDTAVYYCGAYWAQGTRYEYRLNYWGQGTLVTVSS	low polyreactivity
QVQLVESGGGLVQAGGSLRLSCAASGSTFRGYAMGWYRQAPGKERELVAAITSSGGSTYYADSVKGRFTISRDNAKNTVYLQMNSLKPEDTAVYYCAAEGGYWYTITYSYWLDYWGQGTQVTVSS	low polyreactivity
QVQLVESGGGLVQAGGSLRLSCAASGFTFQYYAMGWYRQAPGKERELVPSISWSGGSTYYADSVKGRFTISRDHAKNTVYFQMNSLKPEDTAVYYCADSVTYLFCSARFSAYGYWGQGTQVTVSS	high polyreactivity
QVHLVESGGGLVQAGGSLRLSCAASGSIFGSYAMGWYRQAPGKERELVASITRVDSTNYADSVKGRFTISRDNAKNTVYLQMNSLKPEDTAVYYCNAGKTIDYRDGVGYDHWGQGTQVTVSS	low polyreactivity
QVHLVESGGGLVQAGGSLRLSCAASGNSLRVYAMGWYRQAPGKERELVAAISYSSVNTYYADSVKGRFTISRDNAKNTVYLQMNSLKPEETAVYYCAADYFYYRRTQYDLRGYPYYYWGQGTQVTVSS	low polyreactivity

Sequence	polyreactivity (PSR sort gate)
QVQLVESGGGLVQAGGSLRLTCAASGRTFVENAMGWYRPATGKERELVAAITYSGGGTYYADSVKGRFTISRDNAKNTVYLQMNSVKPEDTAVYDCAATIPYSLDGYDYWGQGTQVTVSS	low polyreactivity
QVQLVESGGGLVQAGGSLRLSCAASGIIYYANVMGWYRQAPGKERELVAGISRNGGRTYYADSVKGRFTISRDNAKNTVYLQMNSLKPEDTAVYYCAARGSYTSIFDYWGQGTQVTVSS	high polyreactivity
QVQLVESWGGLVQEGGSLRLSCAASGSTFGPYAMGWYRQAPGKERELVAAITESGDSTYYADSVKGRFTISRDNAKNSVYLQMNSLKPEDTAVYYCAATRGSSEYYYWGQGTQVTVSS	low polyreactivity
QVQLVESGGGLVQAGGSLRLSCAASGSILQDYTMGWYRQAPGKERELVAAITWNGGSTYYADSVKGRFTISRDNEKNTVYLHMTSLKPEHTAVYYCAAYCRVVPSFYYWGQGTQVTVSS	low polyreactivity
QVQLVESGGGLVQAGGSLRLSCAASGFTFGYYVMGWYRQAPGKERELVAAITSGGSTYYADSVKGRFTISRDNAKNTVYLQMNSLKREDTAVYYCNKYGVVLPGFDYWGQGTQVTVSS	high polyreactivity
QVKLVESGGGLVQAGGSLRLSCAASGFIFGDNAMGWYRQAPGKVREFVAAINSGSRTSYADSVKGRFTISRDNAKNTVYLQMNSLKPEDTAVYYCAAESVSSGDYASRYDYWGQGTQVTVSS	low polyreactivity
QVQLVESGGGLVQAGGRLRLSCAAYGRTFSDYTMGWYRQAPGKERELVAAISRRGGTTYYADSVKGRFTISRDNAKNTVYLQMNSLKPEDTAVYYCAAKRYRPKYEYDYWGQGTQVTVSS	high polyreactivity
QVQLVESGGGLVQAGGSLRLICAASGRIFTSNAMGWYRQAPGKERELVAAISKSGGSTYYADSVKGRFTISRDNAKNTVYLQMNSLKPEDTAVYYCAAVPWRGFDYWGQGTQVTVSS	high polyreactivity
QVQLVESGGGLVQAGGSLRLSCAASGFIFYNYAMGWYRQAPGKERELVAAISKSGDSTYYADSVKGRFTISRDNAKNTVYLQMNSLKPEDTAVYYCNKEIVWHLWYESWGQGTQVTVSS	high polyreactivity
QVQLVESGGGLVQAGGSLRLSCAASGSTFVTNVMGWYRQATGKERELVAAISYSGGNTYYEDSVKGRFTISRDNAKNTVYLQMNSLKPEDTAVYYCAAKYRRWGMEYWGQGTQVTVSS	high polyreactivity
QVQLVESVGGLVQAGGSLRLSCAASGSIFASNSMGWYRQETGKEREFVAAITWRTDRTYYADSVKGRFTISRDNAKNTLYFQMNSLKPEDTAVYYFAADTWFYRFYYWGQGTQVTVSS	high polyreactivity
QVQLVESGGGLVQAGGSLRLSCAASGGIFYTYAMGWSRQAPGKERELVAAISARGGSTYYADSVKGRFTISRDIAKNTVYLQMNSLKPDDTAVYYCAAETYILLEYDYWGQGTQVTVSS	high polyreactivity
QVQLVESGGCLVQAGGSLRLSCAASGSIMYSYAMAWYRQAPGQERELVAAITGDGASTNYADYVKGRFTISRDNAKNTVYLQMNSLKPEDTAVYYCNAGRESDDVYEGSQRIGQFDYWGQGTQVTVSS	low polyreactivity
QVQLVESGGGLVQAGGSLRLSCAASGSIFYKYAMGWYRQAPGKERELVAAISTSGGSTYYADSVKGRFTISRDNAKNTVYLQMNSLKPEDTAVYYCAKARSYGLGRSYYWGQGTQVTVSS	high polyreactivity
QVQLVESGGGLVLAGGSLRLRCAASGSNFYVNAMGWYRQAPWKEMELVAAISRRGGSTYYADSVKGRFTISRDNAKNTVYLQMNSLKPEDTAVYYCNKAMRGQAPSGPEYDYWGQGTQVTVSS	high polyreactivity
QVQLVESRGGLVQAGGSLRLSSAASGFIFDDNAMGWYRQAPGKERQLVAAITSGGGSTYYADSVKGRFTISRDNAKNTVYLQMNSLKPDDTAVYSCNAKLFIRWFTYDYWGQGTQVTVSS	low polyreactivity
QVQLVESGGGLVQAGGSLRLSCAASGSIFLFYTMGWYRQAPGKERELVASSSGGGTHYADSVKGRFTISRDNAKNTVYLQMNSLKPEDTAVYYCATPNKNGQNLGGVWEAYDYWGQGTQVTVSS	low polyreactivity
QLQLVETGGGLVQAGGSLRLSCAASGFTLYSYAMGWYRQDPGKEREFVADGSTYYADSVKGRFTISRDNAKNTVYLQINSLKPEDTAVYYCAADPWIYVQSYGYWGQGTQVTVSS	low polyreactivity
QVQLVESGGGLVQAGGSLRLSCAASGSIYVSYAMGWYRQAPGKERELVATITTSTGSTYADSVKGRFTISRDNAKNTVYLQMNSLKPEDTAVYYCAARYQPWLNDDFDSWGQGTQVTVSS	low polyreactivity
QVQLVESGGGLVQAGGSLRLSCAASGLTFYTYAMGWYRQAPGKERELVAAITYSGGRTSYADSVKGRFTISRDNAKNTVYLQMNSLKPEDTAVYYCAARTLGRRLDYGYWGQGTQVTVSS	low polyreactivity
QVQLVESGGGLVQAGGSLRLSCAASGRIFYRYAMGWYRQAPGKERELVAVISGGGTYYADSVKGRFTISRDNAKNTVYLQMNSLKPEDTAVYYCAADDGVSLVSPYYGGYDYWGQGTQVTVSS	low polyreactivity
